Laboratory results reported in PMC10397247.
Values belong to the binder of their own block, whether it stands above or below them.

Experiments:
[1] = molecular target: T1, 4H462-bA; test: two-hybrid library CCNG1;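 also: natural log of median RNA to DNA barcode read ratio; higher means stronger binding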
T1 chain: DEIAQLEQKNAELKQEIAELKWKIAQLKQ

[2] = molecular target: T2, 4H797-bA; test: two-hybrid library CCNG1;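 also: natural log of median RNA to DNA barcode read ratio; higher means stronger binding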
T2 chain: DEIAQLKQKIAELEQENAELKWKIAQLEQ

[3] = molecular target: T3, 4H953-bA; test: two-hybrid library CCNG1;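 also: natural log of median RNA to DNA barcode read ratio; higher means stronger binding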
T3 chain: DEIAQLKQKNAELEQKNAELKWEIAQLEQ

[4] = molecular target: T4, 4H607-bA; test: two-hybrid library CCNG1;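 also: natural log of median RNA to DNA barcode read ratio; higher means stronger binding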
T4 chain: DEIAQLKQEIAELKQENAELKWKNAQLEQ

[5] = molecular target: T5, 4H918-bA; test: two-hybrid library CCNG1;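 also: natural log of median RNA to DNA barcode read ratio; higher means stronger binding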
T5 chain: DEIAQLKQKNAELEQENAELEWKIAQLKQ

[6] = molecular target: T6, 4H687-bA; test: two-hybrid library CCNG1;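 also: natural log of median RNA to DNA barcode read ratio; higher means stronger binding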
T6 chain: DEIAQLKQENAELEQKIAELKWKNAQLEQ

[7] = molecular target: T7, 4H568-bA; test: two-hybrid library CCNG1
T7 chain: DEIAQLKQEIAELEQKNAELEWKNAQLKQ

[8] = molecular target: T8, 4H4001-bA; test: two-hybrid library CCNG1
T8 chain: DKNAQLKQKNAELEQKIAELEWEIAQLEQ

[9] = molecular target: T9, 4H72-bA; test: two-hybrid library CCNG1
T9 chain: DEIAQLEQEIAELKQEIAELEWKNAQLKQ

[10] = molecular target: T10, 4H967-bA; test: two-hybrid library CCNG1
T10 chain: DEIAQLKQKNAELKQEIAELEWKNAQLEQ

[11] = molecular target: T11, 4H883-bA; test: two-hybrid library CCNG1
T11 chain: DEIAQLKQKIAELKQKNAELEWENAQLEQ

[12] = molecular target: T12, 4H3843-bA; test: two-hybrid library CCNG1
T12 chain: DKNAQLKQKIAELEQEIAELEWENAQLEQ

[13] = molecular target: T13, 4H3782-bA; test: two-hybrid library CCNG1
T13 chain: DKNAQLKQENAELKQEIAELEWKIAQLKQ

[14] = molecular target: T14, 4H370-bA; test: two-hybrid library CCNG1
T14 chain: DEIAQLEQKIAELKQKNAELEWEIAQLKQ

[15] = molecular target: T15, 4H2725-AA; test: two-hybrid library CCmax; conditions: mean of both orientations
T15 chain: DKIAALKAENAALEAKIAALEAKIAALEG

[16] = molecular target: T16, 4H3395-AA; test: two-hybrid library CCmax; conditions: mean of both orientations
T16 chain: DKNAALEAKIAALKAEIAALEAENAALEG

[17] = molecular target: T17, 4H2698-AA; test: two-hybrid library CCmax; conditions: mean of both orientations
T17 chain: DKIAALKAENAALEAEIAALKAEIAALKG

[18] = molecular target: T18, 4H2389-AA; test: two-hybrid library CCmax; conditions: mean of both orientations
T18 chain: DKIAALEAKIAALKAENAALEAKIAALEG

[19] = molecular target: T19, 4H536-AA; test: two-hybrid library CCmax; conditions: mean of both orientations
T19 chain: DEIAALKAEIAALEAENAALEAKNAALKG

[20] = molecular target: T20, 4H3381-AA; test: two-hybrid library CCmax; conditions: mean of both orientations
T20 chain: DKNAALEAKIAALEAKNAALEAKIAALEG

[21] = molecular target: T21, 4H710-AA; test: two-hybrid library CCmax; conditions: mean of both orientations
T21 chain: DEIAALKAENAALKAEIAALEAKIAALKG

[22] = molecular target: T22, 4H629-AA; test: two-hybrid library CCmax; conditions: mean of both orientations
T22 chain: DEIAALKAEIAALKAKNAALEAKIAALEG

[23] = molecular target: T23, 4H3016-AA; test: two-hybrid library CCmax; conditions: mean of both orientations
T23 chain: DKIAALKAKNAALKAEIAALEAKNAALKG

[24] = molecular target: T24, 4H2274-AA; test: two-hybrid library CCmax; conditions: mean of both orientations
T24 chain: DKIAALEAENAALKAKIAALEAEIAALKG

[25] = molecular target: T25, 4H2865-AA; test: two-hybrid library CCmax; conditions: mean of both orientations
T25 chain: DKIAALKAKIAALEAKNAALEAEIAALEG

[26] = molecular target: T26, 4H2438-AA; test: two-hybrid library CCmax; conditions: mean of both orientations
T26 chain: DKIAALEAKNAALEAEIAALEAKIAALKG

[27] = molecular target: T27, 4H94-AA; test: two-hybrid library CCmax; conditions: mean of both orientations
T27 chain: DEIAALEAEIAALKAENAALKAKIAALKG

[28] = molecular target: T28, 4H2649-AA; test: two-hybrid library CCmax; conditions: mean of both orientations
T28 chain: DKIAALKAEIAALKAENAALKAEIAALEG

[29] = molecular target: T29, 4H850-AA; test: two-hybrid library CCmax; conditions: mean of both orientations
T29 chain: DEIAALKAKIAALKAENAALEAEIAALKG

[30] = molecular target: T30, 4H2330-AA; test: two-hybrid library CCmax; conditions: mean of both orientations
T30 chain: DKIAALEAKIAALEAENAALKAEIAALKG

[31] = molecular target: T31, 4H310-AA; test: two-hybrid library CCmax; conditions: mean of both orientations
T31 chain: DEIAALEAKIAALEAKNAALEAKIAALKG

[32] = molecular target: T32, 4H3590-AA; test: two-hybrid library CCmax; conditions: mean of both orientations
T32 chain: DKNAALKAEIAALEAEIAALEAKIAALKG

[33] = molecular target: T33, 4H2162-AA; test: two-hybrid library CCmax
T33 chain: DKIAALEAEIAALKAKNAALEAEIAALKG

[34] = molecular target: T34, 4H485-AA; test: two-hybrid library CCmax; conditions: mean of both orientations
T34 chain: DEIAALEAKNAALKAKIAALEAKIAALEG

[35] = molecular target: T35, 4H2473-AA; test: two-hybrid library CCmax; conditions: mean of both orientations
T35 chain: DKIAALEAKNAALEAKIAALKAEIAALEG

[36] = molecular target: T36, 4H3865-AA; test: two-hybrid library CCmax; conditions: mean of both orientations
T36 chain: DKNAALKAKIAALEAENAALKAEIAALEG

[37] = molecular target: T37, 4H891-AA; test: two-hybrid library CCmax; conditions: mean of both orientations
T37 chain: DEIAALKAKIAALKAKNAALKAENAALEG

[38] = molecular target: T38, 4H3165-AA; test: two-hybrid library CCmax; conditions: mean of both orientations
T38 chain: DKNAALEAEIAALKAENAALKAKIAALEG

[39] = molecular target: T39, 4H2253-AA; test: two-hybrid library CCmax; conditions: mean of both orientations
T39 chain: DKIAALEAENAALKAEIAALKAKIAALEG

[40] = molecular target: T40, 4H570-AA; test: two-hybrid library CCmax; conditions: mean of both orientations
T40 chain: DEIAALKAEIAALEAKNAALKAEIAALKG

[41] = molecular target: T41, 4H3009-AA; test: two-hybrid library CCmax; conditions: mean of both orientations
T41 chain: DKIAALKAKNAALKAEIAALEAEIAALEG

[42] = molecular target: T42, 4H3130-AA; test: two-hybrid library CCmax; conditions: mean of both orientations
T42 chain: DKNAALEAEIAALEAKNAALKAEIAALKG

[43] = molecular target: T43, 4H3753-AA; test: two-hybrid library CCmax; conditions: mean of both orientations
T43 chain: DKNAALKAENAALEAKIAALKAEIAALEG

[44] = molecular target: T44, 4H745-AA; test: two-hybrid library CCmax; conditions: mean of both orientations
T44 chain: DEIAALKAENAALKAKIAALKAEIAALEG

[45] = molecular target: T45, 4H3410-AA; test: two-hybrid library CCmax; conditions: mean of both orientations
T45 chain: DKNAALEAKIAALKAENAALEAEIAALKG

[46] = molecular target: T46, 4H930-AA; test: two-hybrid library CCmax; conditions: mean of both orientations
T46 chain: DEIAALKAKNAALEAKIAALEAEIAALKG

[47] = molecular target: T47, 4H797-AA; test: two-hybrid library CCmax; conditions: mean of both orientations
T47 chain: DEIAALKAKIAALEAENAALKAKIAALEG

[48] = molecular target: T48, 4H3697-AA; test: two-hybrid library CCmax; conditions: mean of both orientations
T48 chain: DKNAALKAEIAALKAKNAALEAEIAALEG

[49] = molecular target: T49, 4H3120-AA; test: two-hybrid library CCmax; conditions: mean of both orientations
T49 chain: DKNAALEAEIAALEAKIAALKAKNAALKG

[50] = molecular target: T50, 4H909-AA; test: two-hybrid library CCmax; conditions: mean of both orientations
T50 chain: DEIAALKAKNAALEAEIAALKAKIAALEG

[51] = molecular target: T51, 4H458-AA; test: two-hybrid library CCmax; conditions: mean of both orientations
T51 chain: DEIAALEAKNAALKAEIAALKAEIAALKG

[52] = molecular target: T52, 4H918-bN; test: two-hybrid library CCNG1
T52 chain: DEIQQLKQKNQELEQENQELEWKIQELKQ

[53] = molecular target: T53, 4H968-bN; test: two-hybrid library CCNG1
T53 chain: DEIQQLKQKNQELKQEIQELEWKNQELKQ

[54] = molecular target: T54, 4H346-bN; test: two-hybrid library CCNG1
T54 chain: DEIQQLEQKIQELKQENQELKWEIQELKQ

[55] = molecular target: T55, 4H575-bN; test: two-hybrid library CCNG1
T55 chain: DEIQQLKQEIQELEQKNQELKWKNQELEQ

[56] = molecular target: T56, 4H3926-bN; test: two-hybrid library CCNG1
T56 chain: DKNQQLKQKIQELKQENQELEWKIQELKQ

[57] = molecular target: T57, 4H683-bN; test: two-hybrid library CCNG1
T57 chain: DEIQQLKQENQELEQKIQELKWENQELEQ

[58] = molecular target: T58, 4H953-bN; test: two-hybrid library CCNG1
T58 chain: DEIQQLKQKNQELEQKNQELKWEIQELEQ

[59] = molecular target: T59, 4H4073-bN; test: two-hybrid library CCNG1
T59 chain: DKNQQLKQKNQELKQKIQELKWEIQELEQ

[60] = molecular target: T60, 4H797-bN; test: two-hybrid library CCNG1
T60 chain: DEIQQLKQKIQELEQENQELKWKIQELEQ

[61] = molecular target: T61, 4H72-bH; test: two-hybrid library CCNG1
T61 chain: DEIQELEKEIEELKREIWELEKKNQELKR

[62] = molecular target: T62, 4H780-bN; test: two-hybrid library CCNG1
T62 chain: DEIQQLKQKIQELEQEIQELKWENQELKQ

[63] = molecular target: T63, 4H457-bN; test: two-hybrid library CCNG1
T63 chain: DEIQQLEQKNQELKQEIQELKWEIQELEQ

[64] = molecular target: T64, 4H855-bN; test: two-hybrid library CCNG1
T64 chain: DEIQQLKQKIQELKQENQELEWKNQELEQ

[65] = molecular target: T65, 4H754-bN; test: two-hybrid library CCNG1
T65 chain: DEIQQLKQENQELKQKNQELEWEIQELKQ

interaction score [1]: 1.39 | interaction score [2]: -0.315 | interaction score [3]: -1.39 | interaction score [4]: -0.647 | interaction score [5]: -0.552 | interaction score [6]: -0.346 | interaction score [7]: 1.81 | interaction score [8]: -0.375 | interaction score [9]: 0.634 | interaction score [10]: -0.217 | interaction score [11]: -0.545 | interaction score [12]: -0.261 | interaction score [13]: 0.864 | interaction score [14]: 1.12
B1: 4H370-bA (peptide)
chain: DEIAQLEQKIAELKQKNAELEWEIAQLKQ

interaction score [15]: -1.72 | interaction score [16]: -0.899 | interaction score [17]: -1.79 | interaction score [18]: -0.128 | interaction score [19]: -1.2 | interaction score [20]: -1.58 | interaction score [21]: -1.09 | interaction score [22]: -1.01 | interaction score [23]: -2.12 | interaction score [24]: -0.925 | interaction score [25]: -0.262 | interaction score [26]: -0.363 | interaction score [27]: -0.0378 | interaction score [28]: -0.344 | interaction score [29]: 0.439 | interaction score [30]: -1.04 | interaction score [31]: -0.523 | interaction score [32]: -0.841 | interaction score [33]: 1.73 | interaction score [34]: -1.06 | interaction score [35]: -1.53 | interaction score [36]: -1.59 | interaction score [37]: -1.78 | interaction score [38]: -0.865 | interaction score [39]: -1.34 | interaction score [40]: 0.778 | interaction score [41]: -1.18 | interaction score [42]: -0.375 | interaction score [43]: -1.93 | interaction score [44]: -0.859 | interaction score [45]: -0.231 | interaction score [46]: -1.36 | interaction score [47]: -1.49 | interaction score [48]: -0.752 | interaction score [49]: -1.44 | interaction score [50]: -1.18 | interaction score [51]: -0.816
B2: 4H2162-AA (peptide)
chain: DKIAALEAEIAALKAKNAALEAEIAALKG

interaction score [52]: -0.654 | interaction score [53]: -0.647 | interaction score [54]: 1.02 | interaction score [55]: -0.652 | interaction score [56]: 1.53 | interaction score [57]: 0.0158 | interaction score [58]: -0.533 | interaction score [59]: -0.58 | interaction score [60]: -0.125 | interaction score [61]: 0.0876 | interaction score [62]: 0.0007 | interaction score [63]: -0.931 | interaction score [64]: -0.517 | interaction score [65]: -0.573 | interaction score [14]: 0.693
B3: 4H346-bN (peptide)
chain: DEIQQLEQKIQELKQENQELKWEIQELKQ
